Publication PMC4691890

Molecular target: T1, full-length human Apaf-1 (residues 1–1248) (human), O14727
T1 chain: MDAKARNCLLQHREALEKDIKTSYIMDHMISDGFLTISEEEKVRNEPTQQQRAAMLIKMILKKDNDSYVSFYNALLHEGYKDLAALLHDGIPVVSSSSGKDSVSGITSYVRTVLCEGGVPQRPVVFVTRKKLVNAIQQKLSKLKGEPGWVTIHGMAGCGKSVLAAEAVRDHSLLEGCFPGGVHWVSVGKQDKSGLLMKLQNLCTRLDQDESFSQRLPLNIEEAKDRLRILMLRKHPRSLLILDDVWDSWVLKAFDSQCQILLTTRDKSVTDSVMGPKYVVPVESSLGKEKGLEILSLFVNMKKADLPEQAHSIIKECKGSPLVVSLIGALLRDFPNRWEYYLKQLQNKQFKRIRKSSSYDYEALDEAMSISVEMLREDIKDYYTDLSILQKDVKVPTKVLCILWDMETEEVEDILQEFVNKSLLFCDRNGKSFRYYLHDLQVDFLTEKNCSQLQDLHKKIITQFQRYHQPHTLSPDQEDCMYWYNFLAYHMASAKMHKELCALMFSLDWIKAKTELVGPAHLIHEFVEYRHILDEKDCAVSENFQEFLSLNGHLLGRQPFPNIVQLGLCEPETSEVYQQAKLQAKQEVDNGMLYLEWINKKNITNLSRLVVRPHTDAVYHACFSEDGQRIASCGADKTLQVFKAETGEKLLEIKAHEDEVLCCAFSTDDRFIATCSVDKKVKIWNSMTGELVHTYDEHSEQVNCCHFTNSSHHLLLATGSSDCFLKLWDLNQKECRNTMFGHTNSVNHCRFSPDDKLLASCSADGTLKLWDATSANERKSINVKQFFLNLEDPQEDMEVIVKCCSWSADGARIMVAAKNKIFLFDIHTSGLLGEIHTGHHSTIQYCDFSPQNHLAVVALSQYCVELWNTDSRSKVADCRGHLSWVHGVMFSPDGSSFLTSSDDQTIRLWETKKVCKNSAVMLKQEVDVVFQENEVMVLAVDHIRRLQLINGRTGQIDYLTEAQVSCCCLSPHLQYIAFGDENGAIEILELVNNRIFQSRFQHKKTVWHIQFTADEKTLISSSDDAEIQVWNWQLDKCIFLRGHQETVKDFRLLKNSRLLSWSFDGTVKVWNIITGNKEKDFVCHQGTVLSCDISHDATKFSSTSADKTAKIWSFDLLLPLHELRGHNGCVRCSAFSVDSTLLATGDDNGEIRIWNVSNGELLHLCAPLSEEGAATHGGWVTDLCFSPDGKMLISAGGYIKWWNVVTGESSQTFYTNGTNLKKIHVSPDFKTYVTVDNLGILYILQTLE
Experiment: cryo-EM structure; apoptosome assembled from full-length Apaf-1 with horse CytC (Sigma) at ~1:2 and 1 mM dATP; ~5 μM on grids; 3.8 Å overall, ~5 Å in the spokes after local masking
Settings: remark: other sources report otherwise

- stoichiometry N: 7
B1: full-length human Apaf-1 (residues 1–1248), O14727 1-1248 (natural protein)
chain: T1 chain
